Assay: soluble on expression in E. coli; label from the status in PepcDB or PDB records
In the case of “GPGSMELNQLELFVASTEHTRSDAWRYLRRLRVLDCKIEEGFDRLHEIAVQLSGTDSDGNLVDNQGNGTLQPDRKKRGRPPLCKNAFTATPYNVGQSPDSSVLLVDPAVANLHEEFRKHSRSVKRYALEREQIAEELVASGKELTEYLEARMREFRATFSISD”, the “soluble on expression in E. coli” value was “soluble”. In the case of “GPGSMEREQLISSASQPRRTVQSPARWADSSLNEIPETPPESGGAGGKLCGRMSDCIRALQVSIQPIITVVSSGNGSRRNNGGGPTVTEPLVAGRMGEREASSPGRNSFNPPRTRSGRESQPQGTISAVSGPEQHSAEKAPASPITVAGEQRMSASRPASGLASVPATGAEGLAVDHLAPGSGGVPEASTNDIIRAVENDRGMLHTTEQLSAVLERLAEYLPIRVEVELDERGPGGDTSSNCFLHHLCLQILGPVRTTPHSALLGLLEDILLEDCVPTSLRISSIHFADVSFSVEPAPGMQSTEEANNVVSFDALPIFGFTTTRVASGDVAENEKVKKECTERFCAFAKNMLECYSHTTSVRLTRCCFTPSDLGRWLKLPLLQLRRLYFEKCPLTAAHLDALIRLARATSRQSGRGPAFQRLEELQLSGSLTEESVAAVLSYFSDELLDGEFALVSLRLPSLWLRVAQSHPILERQPSLIVTST”, the “soluble on expression in E. coli” value was “not soluble”. In the case of “GPGSMFQRSLWRFFAHLVREVDTAGFAGDFRRLHHVGAASTQTQAREARHAACNVLFCGHHGTGKLNLLKAIGLQCEKKGQRVAFVSADNQRAARLDGYLINFFIGMRVSRDELPSQEQLEGTLERHVRLVESTFASSFPSLRNIDVLILDALELVQPTVLLSMDAVARRLRGQPRTPFGGLRVYAAADFWRLPVHPTSDTGGYLFQLEQWEVLFPLQTLLRKSHVQKEEELRRLTELAFYGALTLPQMKELEKLSMKEKPESRLFSWSSSTMEAEKSTATATEGEDEEGEIEEEDAMSIAQWTSFPGESAAADLPDGPEGALEATKDDEGAVNDPAAGQTSLSSSSSALALLNDDMASNSFVATRMMLRFPRQPAVKEMPLRYRQLKRTEMGNFLVNMLVHSSSATSVGLVDSLSVDVGSRVHLLLDGQEHYGVPGGAVGEVMQVGPHFLSIHFPREHRTVDIPRMRVVCYHPFYPEIRYELQQFPVFPRKRICPMNILTYPHAFFVNLNGRRMADTNDLGNLLAHQRSFADFTTRNTSDFANLDGMVHEPTRIYYHKISGKPISTAREQWCRNCKQFVPTDSFFEHWATCVHSVRWCIDCNQTVSLELLGPHREKHQVVLCLDCGRPVEWRHWEGHRLSCGPMMREVSTDNQFIPLRTRQLALEMGLDKRDLHTVASITKSSLPKPREGVL”, the “soluble on expression in E. coli” value was “not soluble”. With “GPGSMHKDGPRLWDDTLVEAERIATDSKARYLQLPTPDREAEMQRTRSQFFLLLRERVRNTYLRRISKFNPGEPLTWKYISGRKKASLPSPTSMLLGDGQHTYKTARRAANALNRIFLPFHPSHKAVRFSKGINRQSASLNINASFLFGQQNNNESAATSTSGSSLPSSSESQDKNEAATTSGLVAHLHSPLDAPFNRTELLAALRNTPYGKAPGPDEVYSEALRHISSKGLRFLLRCINHSWTTGTIPVEWRRATIVPLLKPGKSPELLESYRPISLTSIVSKVAEKMVLKRLLWVWTPHPHQYAYRSMRTTTMQLAHLIHDVEHNRNHYFQVSLPKKSGIGNQLHYRPHRTLLVLVDFSKAFDSIDHRVLSRLLANIPGVNCRRWLRNFLCGRYAKTRVGHRHSDRRPMLRGVPQGSVL” the “soluble on expression in E. coli” value was “not soluble”. In the case of “GPGSMIYVSERPMARTFVVFDKDGKPAERPDEYFPLVQMDKEEFVNRRRGHVADENLFAVDGDLILSHLIMGTQIMYDAEKNAVHSCDTGESEADGSIPISVRVLSDEFVVRHESQPDCLAWGSEAPSVYAG”, the “soluble on expression in E. coli” value was “not soluble”. With “GPGSMKPSFYAVAVGKARGIYSTWAQCSEQVTGYPGCIYKGFRTLDEARSFLAAHPLPSTGSAVSLGGGSSSSVAAPYPSSSEHAALGSNYFKGRLKRETREDLLAGEESVAERQARRRRADHAQIAVAPPELSSMSASLSAATPSTTASKPLATTTTTSSPGAFEVVYVDGACSHNGTSQARAGYGGYYGSMSDPRNFSCPVPLTESQTNNRGEVRAVIHAIVQAFVDAGAPADALEATHLVDPSAWRLVDLTRPLPHLIIYTDSRYVIDGLTRYAKKWVQNGFVLSTNEPVQNQDLWRQLIRLRDRYNTLYARQQHDQQRACQWGDGHHSEADLAQLVRYTCQNARNDKSEGVELIHVRGHSKVHGNEMADSLAVMGSRLHRS” the “soluble on expression in E. coli” value was “soluble”. With “GPGSMKVSSFIVQLRPGFFRLMIHAKPGARSTALAAQPQALDEALEVRLAAPPVDGKANTELVEFMQTLLEQQLATLRITQKQHLRKSGCEDGEDEVYTYEHYAKKKKSKNNKRMNEDSKSGEAKVEYPDDKVRVSLVSGLTSRNKVLEVTFPGTEEDLLAVLKSADFS” the “soluble on expression in E. coli” value was “soluble”. In the case of “GPGSMLANYDYESDLRGRTDELGRAQHVDAYDKHPTFLESPYAGQEDLLRDAPQSYMDGPPPGYGGHDAYEHVDMNGGGYDLPLQPQAQTQAVDTRRLSKDRLARGGLNIFSWNTDAPTLNHPREVRERDCAELQRLRPVDSAAQRDKEVREKFEGNTQSRFLCFSESDSPGKRRGVRVFNPNNKNGNLNSGTGHENPIQNRFNEEPQPFKIRQQQPRPLPQQNLPPAGRATHSNRQESGGIPGFAGMGEGRQHNARRGRGSYRG”, the “soluble on expression in E. coli” value was “not soluble”. In the case of “GPGSMLATFFGRRAEPEFKVVCDPESIVFPVDFDAPDYPYEQAFEEADAYVRKLPTRGVVPVSDVLRLQFYSLFKQATEGDINEDVKQPSMLRDWEGYWKVYGWRKCRGMTRERARDLYTDLLDLQIRKHCSFVWGAPSGEDRWAAFYDGVRIIRNLPKGGYYLPDSLRAHFYALYKQALVGNLSDFQKTPAAFSEKYKWLRSRPSKAGFDQMRYDEWAALKGMSCEKAKRMYCKDIFKSAAMCGYVWAPPGTADHLKVIGDQTSAKTLKKRTDADEHAERIAGATHLTMEEAMDAVGVHLSMVERLTMHSFTKKEQTAAARTAEEAAGRKKREEKAEVKRRGVAGSHVDLNKGMAFARPKAEESTEATVTEKTEETEAKEDAERRLEAQGTDKDPQSVCNLCGSFAKDIASDAEAPEKVKESGAAAAAAKDCTAASTSPAPVPKLQASAKVAEASKILPSKSEPVLKKEPAVKGTSKGAKSSHQAKNGAKKGPAGKRTKAN”, the “soluble on expression in E. coli” value was “soluble”. With “GPGSMLGWSGTRFAAALHLRSVCSPRSAAAQGSHARAPRALSSSSSFVALFGSARGFSGTARRFSGTFHYRKVRLTPEDALDPLTKPTNIDKAALHVVSVPIGNLKDFSLRALDVLRGVDYIITTDRPATKTLLDLVNIPNQGRLIHYSRGNRSTSREKLVELLKGGRSMALVTTSGTPCIGDVGGELVQELQKSGIRVTAVPGASALMSALAISGLTTSAYESAKNDKRGADAAADGEAGLSPQTFEDGSFFFGNVLPKSHGARLRILRTIVAPATFPCVFYEVPYRLVMVLQDIASVLPHRFVYVTHELTKLNESLHADTAERLVGFYLRQEAQMLVKKGQLVLVIAGAGPKETAAWLEKEAAKRRRLRRTVSDLMKDAPPAASSHLESAPGTGGTTAAASSSRESSVTTAKEERRQRRKQRAELRRLRQRKKRERLIRAIESEQERLRVILSINRNDASRLM” the “soluble on expression in E. coli” value was “not soluble”. In the case of “GPGSMLHFPITPPPIEIEYLDNDPLEFAVRTEARKWRFDDMGYMRELAFVRINNNPTVGDFRNMSPDERRNLFWGSDRQDFFRHLTCTLTGSPEHLYHRGW”, the “soluble on expression in E. coli” value was “not soluble”. For “GPGSMLRATILARGTLVKIGRGPNNVTESASNALLESLQDHGYCYIQHPFIQKTILDQLHRDCRIFFEQYVLHLHDAAAQGSLKRNNLHNYNCTQLSPYELESIKSPSGFRGYYRYVGASGIDDAIECFSVGRDDVADPAVLRRDYYKQAGWEESEYLSMISRRNPWDILLNHVNSIPASGSGIVPGMDRNDNFMSDFKDMMMAYYDLCYTVSMDVMRHISCGLGIRPSIPQGGSDPTMDFELEYFTSFHQKRDCDLQAKYYPQLGAGARLKNGVDIQNQRSAHNPDGVKVLRRKGAKTQPLVRTASTEDGDGEKDVTVRLDTHKDLSTITLLSQDSLGGLEVWDEEKASYMAVPVLEDALLVNAGLFLEKWTGGLIEATPHRVRNAKGGSSRCSIVFFALPDHDARIEPLLQQEDNPAVDAQDSFLAGDMMPAP”, the “soluble on expression in E. coli” value was “not soluble”. For “GPGSMLRLSLRRWCAAAASGSSTSTAHGSPPATTLPDFYGKSFSVSPRAWAQITRKNSEEGFTNDARYLRLAIDSGGCHGYVYKFSFEKNDEFSCEGDVAIAEVDAVSPSDEAFTGAQPSPRVVVDTLSASKLANATLDYHSELKGSAFVVVGNELVDESCACAMSFSMRKTTRQSVASSSSARGASSGDGGGHGGSGAAAPPAGSSLAANARPISRRSTTRATS”, the “soluble on expression in E. coli” value was “soluble”. With “GPGSMLRNTDVRLFSTFALNPETSVAPHGPPRGLVNRYVSMGLPPWAAWCNKVNRYSLYRMSGVTQRSFLPKPPQEMDVIWLNERVRERVRTSRQVQNVYRQLKYPYVKTGIHYSDVLDHWVQVPMVEAAMFEVEKDGGFDNFILKRSGPELRSTYGERIRRHILVRQKEIQKNFVLQKQAQMLVESMEKEILPMEDGKKVEEVLEKYGIDKEQLLRDIARAAVAKKQQLASAVPQPSHVEVSTN” the “soluble on expression in E. coli” value was “not soluble”. In the case of “GPGSMLRRLFTRMAPRAKNHEELMKMLREGSQVGKMAASEESGVTFRDIRTVPIGESNEAKRRRLLYQSTYRGMVEMDIILGAFARQNIETLSAPQLEEYDAVLRHFDNDLYKWLVMDVEAPAEVAQIPVFQSLHSFVRDEREKLLKCAS”, the “soluble on expression in E. coli” value was “soluble”. With “GPGSMMRTQQVDPDLTPVLAALASRINRDLPTVVELLCRRLVVQWNRAYLRKDWRFVENASRYLGWLFLLNVVEVDIIYQLLLKHLTSEKRREEDIDQAAKLFRETFKVMSLKERRSFHEQILTPFRDLLAMDDEELRLSTRSQAVLESCLKEVQEWERRKEREEAIPDYLVLFDLEMQQRHEMDLDEKYPTEDALDRYAFDAEYDTHEEQYEAVRKAILGEDWEVELLQQV” the “soluble on expression in E. coli” value was “not soluble”. In the case of “GPGSMMVLDIQLFRDETGANIIRESQRRRFADPDIVDAIIEADKKWRRTQFLTEASKKLINICSKAVGAKKKAKEADGDTSEIPPQVKEAYENGTLKGEQVEQLCVLQLKQLSKDLSDQVAGLAKEAQQLEEERDKLMLNVGNILHESVPIAQDEETGNTVVRTFGNTTKRAKLNHVSIMERLGMMDTSKAVTSMAGGRSYVLKGGLVQLQVALVSYSLDFLVKRGYTPFYPPFFLNRDVMGEVAQLSQFDEELYQVSGDGDKKYLIATSEMPIAAYHRGRWFTELKEPLKYAGMSTCFRKEAGAHGRDTLGIFRVHQFDKIEQFVVCSPRQEESWRHLEDMITTSEEFNKSLGLPYRVVNICSGALNNAAAKKYDLEAWFPASGAFRELVSCSNCTDYQSQSVNCRYGPNLRGTAAQNVKEYCHMLNGTLCAITRTMCCICENYQTEEGVVIPDVLRPYMMGIEMIRFENNAQAEGTTPDKGE”, the “soluble on expression in E. coli” value was “soluble”. In the case of “GPGSMNRDPDNGLWYATLRGRTLLGEEVQLPESGIVGMTTVTTSKPSCSPFPTPASLSTFPPQIAEVGELEMVDEVFIEACAPRYVVWDHGRAPSPAASLLQWMMLAEVLHGPSKWAQGEGDTSL”, the “soluble on expression in E. coli” value was “not soluble”. With “GPGSMPLMSADGSGELPPVMLHRYPVTLGLPTADPYALAIECMLRIVGAHYKKRDGGLPVTLEVPVDGRNKPAMKRHEGLTSCLQLIESATHQDAEVITSALEPEALCVRLTAEVVLIPAFVYITHSDAGILRNAIQKAVEPKVASMWQRFRGSYSRHVVQQTSFCRSYKNMGEAIENVERCLRAIEAICSINTAGNGMFILGTERPCSADALIYAAASSFFHADFASRQASGDIIAMQQRLREGCPTLLTYVERLRGLYFEDYSAFYHLRAPTCGMEGEATQKAAEETFVRGRWKVLAFTGVFSITYFLVANIDVFSAVLLHYLEDDGEEEFLEDEE” the “soluble on expression in E. coli” value was “not soluble”. With “GPGSMPSPFQQTLLARAYHYVHPKTGRPIRQFRRYGDPRYINNEAALIRGQWGLITADFGMVTQSQMENARLAILRRLPRGSFTLTMHTDYEEFPVVKKSPESRMGAGKANIHHFAFKFTTGVPLFEIMPISARRLNQAEAEGIFLAGRPFIPLQTVVVPQGRVDEYHVFK” the “soluble on expression in E. coli” value was “not soluble”.

— the DeepSol protein solubility set
